In assay [1] the target is LY6A (Ly6a, C57BL/6J mouse) (mouse (C57BL/6J)) (UniProt P05533). Briefly: AAV library bound to Ly6a-transfected HEK293T cells, NGS.
Assay [2] deals with LY6C1 (Ly6c1, C57BL/6J mouse, splice variant 1) (mouse (C57BL/6J)) (UniProt P0CW02). The assay is described as follows: AAV library bound to Ly6c1-transfected HEK293T cells, NGS.
In assay [3] the target is LY6A (Ly6a, C57BL/6J mouse) (mouse (C57BL/6J)) (UniProt P05533). Briefly: AAV library bound to Ly6a-transfected HEK293T cells, NGS. This is another data set of the same source.
Assay [4] concerns the target LY6C1 (Ly6c1, C57BL/6J mouse, splice variant 1) (mouse (C57BL/6J)) (UniProt P0CW02). Briefly: AAV library bound to Ly6c1-transfected HEK293T cells, NGS. This is another data set of the same source.

Like-named read-outs stand apart in the source and are kept apart here.

Sequence of UniProt P05533 (P05533 27-112 limits assumed): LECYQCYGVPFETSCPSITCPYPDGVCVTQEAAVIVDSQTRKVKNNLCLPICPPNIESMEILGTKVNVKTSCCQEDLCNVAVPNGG
Sequence of UniProt P0CW02 (P0CW02 27-109 limits assumed, change not shown): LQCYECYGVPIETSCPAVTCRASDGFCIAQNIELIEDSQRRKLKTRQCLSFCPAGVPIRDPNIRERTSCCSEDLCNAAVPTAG

With AAV9 K449R 7-mer variant C1 (KSAGSIY), the values for the fold enrichment (log2) in assay [1] and in assay [2] were 1.41 log2 and 6.12 log2, respectively.
The matching figures for AAV9 K449R 7-mer variant C3 (WGTPPRG): 1.01 log2 and 6.35 log2.
AAV9 K449R 7-mer variant C5 (ELYKLPT): the fold enrichment (log2) in assay [1] is -2.26 log2; in assay [2] it was 5.38 log2.
Take AAV9 K449R 7-mer variant NMERPFR: the fold enrichment (log2) in assay [3] amounted to 2.96 log2; in assay [4], 0.95 log2.
For AAV9 K449R 7-mer variant NRGGYAS, the fold enrichment (log2) is -0.18 log2 in assay [3] and 4.53 log2 in assay [4].
On to AAV9 K449R 7-mer variant NSPGWSS, for which the fold enrichment (log2) in assay [3] was -0.93 log2; in assay [4], 3.08 log2.
Consider AAV9 K449R 7-mer variant PPSFKNV, for which the fold enrichment (log2) is 3.69 log2 in assay [3] and -4.33 log2 in assay [4].
The matching figures for AAV9 K449R 7-mer variant PYQGASS: -0.53 log2 and 5.24 log2.
The matching figures for AAV9 K449R 7-mer variant QDKGYSS: -3.55 log2 and 2.61 log2.
In the case of AAV9 K449R 7-mer variant QHFGQSS, the figures for the fold enrichment (log2) in assay [3] and in assay [4] were -0.37 log2 and 4.68 log2, respectively.
For the substance AAV9 K449R 7-mer variant QNARPFV, the fold enrichment (log2) in assay [3] is 1.52 log2; in assay [4], 1.42 log2.
The matching figures for AAV9 K449R 7-mer variant QSAGYST: -1.58 log2 and 2.55 log2.
The matching figures for AAV9 K449R 7-mer variant QTLFKNI: 3.07 log2 and -0.72 log2.
The matching figures for AAV9 K449R 7-mer variant RATGYSS: 2.49 log2 and 4.75 log2.
In the case of AAV9 K449R 7-mer variant RIDNPFK, the fold enrichment (log2) in assay [3] is 4.48 log2; in assay [4], -1.89 log2.
In the case of AAV9 K449R 7-mer variant RLSFKDV, the fold enrichment (log2) in assay [3] was 2.39 log2; in assay [4], -1.62 log2.
For the substance AAV9 K449R 7-mer variant RSDFKDI, the fold enrichment (log2) in assay [3] was 3.45 log2; in assay [4], -2.44 log2.
The matching figures for AAV9 K449R 7-mer variant SEGRPFI: 1.85 log2 and -3.55 log2.
Regarding AAV9 K449R 7-mer variant SHTKPFA, the figures for the fold enrichment (log2) in assay [3] and in assay [4] were 4.79 log2 and 0.97 log2, respectively.
The matching figures for AAV9 K449R 7-mer variant SIARPFV: 3.79 log2 and -3.55 log2.
Consider AAV9 K449R 7-mer variant SINKPFV, for which the fold enrichment (log2) in assay [3] was 4.74 log2; in assay [4], -0.3 log2.
For the substance AAV9 K449R 7-mer variant SIYLGSQ, the fold enrichment (log2) was -0.76 log2 in assay [3] and 4.47 log2 in assay [4].
The matching figures for AAV9 K449R 7-mer variant SKGSYST: 1.54 log2 and 2.74 log2.
The matching figures for AAV9 K449R 7-mer variant SKSGYSA: -3.32 log2 and 2.14 log2.
The matching figures for AAV9 K449R 7-mer variant SKTGYST: -3.55 log2 and 4.43 log2.
As to AAV9 K449R 7-mer variant SLDFKNI, the fold enrichment (log2) in assay [3] was 4.61 log2; in assay [4], -1.29 log2.
Turning to AAV9 K449R 7-mer variant SLSKPFS, the results for the fold enrichment (log2) in assay [3] and in assay [4] were 2.19 log2 and -2.08 log2, respectively.
The matching figures for AAV9 K449R 7-mer variant SNDRPFI: 5.43 log2 and -1.02 log2.
Turning to AAV9 K449R 7-mer variant SQKTPFL, the fold enrichment (log2) is 3.81 log2 in assay [3] and -3.55 log2 in assay [4].
Take AAV9 K449R 7-mer variant SSEKPFQ: the fold enrichment (log2) in assay [3] was 2.69 log2; in assay [4], -3.55 log2.
Take AAV9 K449R 7-mer variant SSTGYSS: the fold enrichment (log2) in assay [3] is -1.93 log2; in assay [4], 4 log2.
The matching figures for AAV9 K449R 7-mer variant STRGYSA: 1.08 log2 and 3.55 log2.
The matching figures for AAV9 K449R 7-mer variant STTFKDI: 3.44 log2 and -3.32 log2.
AAV9 K449R 7-mer variant SYIGASS: the fold enrichment (log2) was -1.01 log2 in assay [3] and 5.08 log2 in assay [4].
The matching figures for AAV9 K449R 7-mer variant SYQGYSS: 1.47 log2 and 5.21 log2.
As for AAV9 K449R 7-mer variant TDTRPFI, the values for the fold enrichment (log2) in assay [3] and in assay [4] were 4.19 log2 and -3.32 log2, respectively.
Regarding AAV9 K449R 7-mer variant TEKWTSS, the fold enrichment (log2) was found to be 0.98 log2 in assay [3] and 4.43 log2 in assay [4].
The matching figures for AAV9 K449R 7-mer variant TGTSPFK: 2.22 log2 and -3.32 log2.
The matching figures for AAV9 K449R 7-mer variant TITFKDV: 5.15 log2 and -0.78 log2.
For the substance AAV9 K449R 7-mer variant TKSGYST, the fold enrichment (log2) in assay [3] turned out to be 0.68 log2; in assay [4], 5.71 log2.
On to AAV9 K449R 7-mer variant TKSTPFI, for which the figures for the fold enrichment (log2) in assay [3] and in assay [4] were 2.6 log2 and -1.85 log2, respectively.
The matching figures for AAV9 K449R 7-mer variant TKYMHSS: 1.35 log2 and 4.24 log2.
The matching figures for AAV9 K449R 7-mer variant TLAYPFK: 3.93 log2 and -0.72 log2.
With AAV9 K449R 7-mer variant TQQGYSS, the figures for the fold enrichment (log2) in assay [3] and in assay [4] were -0.92 log2 and 5.8 log2, respectively.
The matching figures for AAV9 K449R 7-mer variant TRDLPFK: 4.34 log2 and -1.36 log2.
For AAV9 K449R 7-mer variant TRFGAST, the fold enrichment (log2) in assay [3] turned out to be 0 log2; in assay [4], 4.32 log2.
For AAV9 K449R 7-mer variant TRFGSST, the fold enrichment (log2) worked out at 1.29 log2 in assay [3] and 3.63 log2 in assay [4].
The matching figures for AAV9 K449R 7-mer variant TRTGYST: 0.89 log2 and 4.63 log2.
The matching figures for AAV9 K449R 7-mer variant TRTSGAS: 0.43 log2 and 3.85 log2.
The matching figures for AAV9 K449R 7-mer variant TSFKPFP: 3.11 log2 and 0.48 log2.
For AAV9 K449R 7-mer variant TSMKPFL, the fold enrichment (log2) in assay [3] was 3.49 log2; in assay [4], -0.98 log2.
The matching figures for AAV9 K449R 7-mer variant TTMKPFN: 2.95 log2 and -3.74 log2.
The matching figures for AAV9 K449R 7-mer variant TVMAPFK: 5.53 log2 and -0.19 log2.
Turning to AAV9 K449R 7-mer variant TVTGYSS, the fold enrichment (log2) is -3.91 log2 in assay [3] and 3.22 log2 in assay [4].
The matching figures for AAV9 K449R 7-mer variant TYGGYSQ: -0.34 log2 and 2.02 log2.
The matching figures for AAV9 K449R 7-mer variant TYKSGSS: 1.95 log2 and 3.78 log2.
The matching figures for AAV9 K449R 7-mer variant VAERPFK: 6.38 log2 and 1.22 log2.
AAV9 K449R 7-mer variant VAVFKNV: the fold enrichment (log2) in assay [3] was 4.23 log2; in assay [4], -0.91 log2.
The matching figures for AAV9 K449R 7-mer variant VKGGYSS: 0.07 log2 and 3.3 log2.
For the substance AAV9 K449R 7-mer variant VKVGFSS, the fold enrichment (log2) in assay [3] is -2.25 log2; in assay [4] it was 4.22 log2.
With AAV9 K449R 7-mer variant VNRGYSS, the fold enrichment (log2) came out at 0.89 log2 in assay [3] and 5.18 log2 in assay [4].
On to AAV9 K449R 7-mer variant VPRYGSS, for which the fold enrichment (log2) is -1.01 log2 in assay [3] and 3.55 log2 in assay [4].
The matching figures for AAV9 K449R 7-mer variant VRPGWST: 1.02 log2 and 5.89 log2.
The matching figures for AAV9 K449R 7-mer variant VTHGYSS: -0.84 log2 and 3.25 log2.
AAV9 K449R 7-mer variant VYPGYST: the fold enrichment (log2) in assay [3] is -3.32 log2; in assay [4], 2.21 log2.
In the case of AAV9 K449R 7-mer variant WRQGYAS, the fold enrichment (log2) in assay [3] is -0.09 log2; in assay [4], 2.89 log2.
As for AAV9 K449R 7-mer variant YENRPFV, the fold enrichment (log2) in assay [3] was 2.23 log2; in assay [4] it was -3.32 log2.
The matching figures for AAV9 K449R 7-mer variant YLKGYSA: 0.15 log2 and 4.46 log2.
Regarding AAV9 K449R 7-mer variant YVGNPFK, the fold enrichment (log2) in assay [3] turned out to be 4.53 log2; in assay [4], 0.58 log2.

The record behind these values is patent US20220143214A1.
